Biological target: Peroxiredoxin 4 wildtype, recombinant full-length (human) (UniProt Q13162)
Assay: SPR

Sulfiredoxin (Srx), recombinant full-length, sequence (Q9BYN0 whole entry): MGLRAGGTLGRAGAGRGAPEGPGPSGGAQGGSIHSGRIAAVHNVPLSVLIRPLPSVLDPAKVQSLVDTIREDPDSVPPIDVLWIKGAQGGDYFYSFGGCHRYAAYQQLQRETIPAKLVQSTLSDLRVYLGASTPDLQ

Work on “Sulfiredoxin (Srx), recombinant full-length (from UniProt Q9BYN0 1-137) (enzyme)” yielded a Kd of 3.26 mM, a koff of 0.00166 s⁻¹ and a kon of 0.509 M⁻¹ s⁻¹.
